According to patent US20180230233A1 (Genentech, published 2018):
Where a chain is given by its changes, count along the chain named. Numbers in names are those of the source.

B1: hu31A.v11 W100F (antibody, name in Kabat numbering, V domains shown)
VH: EVQLVESGGGLVQPGGSLRLSCAASGFTFSDYGMVWVRQAPGKGLEWVAFISSGSSTVYYADTMKGRFTISRDNSKNTLYLQMNSLRAEDTAVYYCTRRNYDDFYFDVWGQGTLVTVSS
VL: DIQMTQSPSSLSASVGDRVTITCSASSSVTYMYWYQQKPGKSPKPWIYRTSDLASGVPSRFSGSGSGTDFTLTISSLQPEDFATYYCQHYHSYPLTFGQGTKVEIK
notes: also called W100F variant
B2: hu31A.v11 W100L (antibody, name in Kabat numbering, V domains shown)
VH: B1 VH with F104L
VL: B1 VL
notes: also called W100L variant
B3: hu31A.v11 W100R (antibody, name in Kabat numbering, V domains shown)
VH: B1 VH with F104R
VL: B1 VL
notes: also called W100R variant
B4: hu31A.v11 W100V (antibody, name in Kabat numbering, V domains shown)
VH: B1 VH with F104V
VL: B1 VL
notes: Position 100 is Kabat numbering; also called W100V variant
B5: hu31A.v11 W100Y (antibody, name in Kabat numbering, V domains shown)
VH: B1 VH with F104Y
VL: B1 VL
notes: Position 100 is Kabat numbering; also called W100Y variant
B6: rabbit anti-tryptase monoclonal antibody E104 (antibody, V domains shown)
VH: QSLEESGGGLFKPTDTLTLTCTVSRFSLIGYAITWVRQSPENGLEWIGGISSAATTFYSSWAKSRSTITRNTNENTVTLKMTSLTAADTATYFCARDPRGYGAALDRLDLWGQGTLVTVSS
VL: AAVLTQTPASVSAAVGGTVSISCQSIKSVYNNRLGWYQQKPGQPPKLLIYETSILTSGVPSRFKGSGSETQFTLTISDVQCDDAATYFCAGGFDRSGDTTFGGGTEVVVK
notes: Rabbit hybridoma antibody with rabbit kappa light chain; also called rab.E104; clone E104
B7: hu31A.v14 IgG1 (antibody, V domains shown)
VH: B1 VH with Y94V, N100D, Y101N, D102Y, F104W
VL: B1 VL
B8: hu31A.v1 IgG1 (antibody, V domains shown)
VH: B1 VH with A49G, Y94V, T97A, N100D, Y101N, D102Y, F104W
VL: B1 VL with S42A, P45L, W46L
notes: also called v1 (of hu31A)
B9: hu31A.v2 IgG1 (antibody, V domains shown)
VH: B1 VH with A49G, Y94V, T97A, N100D, Y101N, D102Y, F104W
VL: B1 VL
notes: also called v2 (of hu31A)
B10: hu31A.v3 IgG1 (antibody, V domains shown)
VH: B1 VH with A49G, Y94V, T97A, N100D, Y101N, D102Y, F104W
VL: B1 VL with M4L, F70Y
notes: also called v3 (of hu31A)
B11: hu31A.v4 IgG1 (antibody, V domains shown)
VH: B1 VH with Y94V, T97A, N100D, Y101N, D102Y, F104W
VL: B1 VL with S42A, P45L, W46L
notes: also called v4 (of hu31A)
B12: hu31A.v5 IgG1 (antibody, V domains shown)
VH: B1 VH with Y94V, T97A, N100D, Y101N, D102Y, F104W
VL: B1 VL
notes: also called v5 (of hu31A)
B13: hu31A.v6 IgG1 (antibody, V domains shown)
VH: B1 VH with Y94V, T97A, N100D, Y101N, D102Y, F104W
VL: B1 VL with M4L, F70Y
notes: also called v6 (of hu31A)
B14: hu31A.v7 IgG1 (antibody, V domains shown)
VH: B1 VH with D31S, Y32F, V35H, Y94V, T97A, N100D, Y101N, D102Y, F104W
VL: B1 VL with S42A, P45L, W46L
notes: also called v7 (of hu31A)
B15: hu31A.v8 IgG1 (antibody, V domains shown)
VH: B1 VH with D31S, Y32F, V35H, Y94V, T97A, N100D, Y101N, D102Y, F104W
VL: B1 VL
notes: also called v8 (of hu31A)
B16: hu31A.v9 IgG1 (antibody, V domains shown)
VH: B1 VH with D31S, Y32F, V35H, Y94V, T97A, N100D, Y101N, D102Y, F104W
VL: B1 VL with M4L, F70Y
notes: also called v9 (of hu31A)
B17: hu31A.v10 IgG1 (antibody, V domains shown)
VH: B1 VH with F104W
VL: B1 VL with S42A, P45L, W46L
notes: also called v10 (of hu31A)
B18: hu31A.v12 IgG1 (antibody, V domains shown)
VH: B1 VH with F104W
VL: B1 VL with M4L, F70Y
notes: also called v12 (of hu31A)
B19: hu31A.v13 IgG1 (antibody, V domains shown)
VH: B1 VH with Y94V, N100D, Y101N, D102Y, F104W
VL: B1 VL with S42A, P45L, W46L
B20: hu31A.v15 IgG1 (antibody, V domains shown)
VH: B1 VH with Y94V, N100D, Y101N, D102Y, F104W
VL: B1 VL with M4L, F70Y
B21: huE104.v9 IgG1 (chimeric heavy chain) (antibody, V domains shown)
VH: B6 VH
VL: DIQMTQSPSSLSASVGDRVTITCQSIKSVYNNRLGWYQQKPGKAPKLLIYETSILTSGVPSRFSGSGSGTDFTLTISSLQPEDFATYYCAGGFDRSGDTTFGQGTKVEIK
notes: also called E104.v9 chimeric clone
B22: huE104.v3 IgG1 (antibody, V domains shown)
VH: EVQLVESGPGLVKPSETLSLTCTVSRFSLIGYAITWVRQPPGKGLEWIGGISSAATTFYSSWAKSRSTISRDTSKNQVSLKLSSVTAADTAVYFCARDPRGYGAALDRLDLWGQGTLVTVSS
VL: B21 VL
B23: huE104.v5 IgG1 (antibody, V domains shown)
VH: B22 VH with V37I, S67V, R71V, V78F, F94Y
VL: B21 VL with I2A, M4L, A44P, G69E, Y88F
B24: huE104.v6 IgG1 (antibody, V domains shown)
VH: B22 VH with V37I, S67V, F94Y
VL: B21 VL with I2A, M4L, A44P, G69E, Y88F
B25: huE104.v7 IgG1 (antibody, V domains shown)
VH: B22 VH
VL: B21 VL with I2A, M4L, A44P, G69E, Y88F
B26: huE104.v11 IgG1 (antibody, V domains shown)
VH: B22 VH with V37I, S67V, R71V, F94Y
VL: B21 VL
notes: also called v11 (of huE104)
B27: huE104.v12 IgG1 (antibody, V domains shown)
VH: B22 VH with V37I, S67V, V78F, F94Y
VL: B21 VL
notes: also called v12 (of huE104)
B28: huE104.v10 IgG1 (chimeric light chain) (antibody, V domains shown)
VH: B22 VH with V37I, S67V, F94Y
VL: B6 VL with C81A
B29: huE104.v4 IgG1 (antibody, V domains shown)
VH: EVQLVESGGGLVQPGGSLRLSCAVSRFSLIGYAITWVRQAPGKGLEWIGGISSAATTFYSSWAKSRSTISRDTSKNTVYLQMNSLRAEDTAVYFCARDPRGYGAALDRLDLWGQGTLVTVSS
VL: B21 VL
B30: huE104.v8 IgG1 (antibody, V domains shown)
VH: B29 VH
VL: B21 VL with I2A, M4L, A44P, G69E, Y88F

biological target: T1, recombinant His-tagged human tryptase beta 1 monomer (human, UniProt Q15661 31-275); test: SPR, tryptase beta 1 monomer
T1 construct: also called His6-tagged tryptase monomer; human tryptase b1 monomer
T1 sequence (Q15661 other isoform, or with tags, fused parts or gaps): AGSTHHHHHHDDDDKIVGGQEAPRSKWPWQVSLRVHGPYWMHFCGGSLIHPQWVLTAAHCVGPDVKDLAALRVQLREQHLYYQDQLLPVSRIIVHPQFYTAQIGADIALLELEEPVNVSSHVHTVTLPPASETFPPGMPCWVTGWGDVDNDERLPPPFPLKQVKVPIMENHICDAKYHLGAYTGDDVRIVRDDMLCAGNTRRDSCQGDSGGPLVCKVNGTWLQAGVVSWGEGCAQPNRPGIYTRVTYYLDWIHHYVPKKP
Procedure: (§1) The assay can use a BIAcore® T200 or an equivalent device. Briefly, BIAcore® Series S CM5 sensor chips (or equivalent sensor chips) are immobilized with monoclonal mouse anti-human IgG (Fc) antibody and anti-tryptase antibodies are subsequently captured on the flow cell. Serial 3-fold dilutions of the human tryptase beta 1 monomer are injected at a flow rate of 30 μl/min. Each sample is analyzed with 3 min association and 10 min dissociation. The assay is performed at 25° C. After each injection, the chip is regenerated using 3 M MgCl₂. Binding response is corrected by subtracting the response units (RU) from a flow cell capturing an irrelevant IgG at similar density. A 1:1 Languir model of simultaneous fitting of kₒₙ and koff is used for kinetics analysis.
(§2) In this experiment, all the humanized variants were expressed as IgG by transient transfection of 293 cells. IgG was purified with protein G affinity chromatography. The affinity of each variant for recombinant His-tagged human tryptase beta 1 monomer (SEQ ID NO: 128) was determined by SPR analysis using a BIAcore® T200. BIAcore® Series S CM5 sensor chips were immobilized with monoclonal mouse anti-human IgG (Fc) antibody (Human antibody capture kit from GE Healthcare) and anti-tryptase variants were subsequently captured on each flow cell. Serial 3-fold dilutions of the human tryptase beta 1 monomer were injected at a flow rate of 30 μl/min. Each sample was analyzed with 3 min association and 10 min dissociation. After each injection, the chip was regenerated using 3 M MgCl₂. Binding response was corrected by subtracting the response units (RU) from a flow cell capturing an irrelevant IgG at similar density. A 1:1 Languir model of simultaneous fitting of kₒₙ and koff was used for kinetics analysis.

Binder | KD as fold increase compared to hu31A.v11 wild type
B1 | 80 fold
B2 | 2410 fold
B3 | 54 fold
B4 | 821 fold
B5 | 234 fold

biological target: T2, recombinant human tryptase beta 1 tetramer (wild type, active) (human, UniProt Q15661 31-275); test: ELISA on biotinylated human tryptase beta 1 captured on NeutrAvidin, with heparin to keep the tetramer
T2 construct: Non-covalent homotetramer made by enterokinase removal of the His6 tag in the presence of heparin or dextran sulfate; In the huE104.v1 crystal the active sites were modified with Glu-Gly-Arg-chloromethyl ketone; also called WT tetrameric tryptase; active tetrameric tryptase beta 1
T2 sequence (Q15661 31-275): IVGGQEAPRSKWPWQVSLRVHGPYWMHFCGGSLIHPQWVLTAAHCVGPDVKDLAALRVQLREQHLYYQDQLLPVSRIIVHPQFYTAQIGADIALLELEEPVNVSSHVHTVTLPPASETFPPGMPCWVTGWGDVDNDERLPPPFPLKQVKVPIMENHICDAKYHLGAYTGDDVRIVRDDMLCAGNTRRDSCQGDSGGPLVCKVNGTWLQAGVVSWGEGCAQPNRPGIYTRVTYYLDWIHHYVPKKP

Binder | binding result
B6 | binds

biological target: T1, recombinant His-tagged human tryptase …; test: SPR, tryptase beta 1 monomer; remark: another data set of the same source

Binder | fold faster off-rate (Koff) compared to wild-type hu31A.v11
B1 | ~100 fold

biological target: T2, recombinant human tryptase beta 1 …; test: cell-based or functional assay

Binder | IC50 as fold increase compared to hu31A.v11 wild type
B1 | 2.5 fold
B5 | 3.46 fold

biological target: T1, recombinant His-tagged human tryptase …; test: SPR (BIAcore T200); IgG1 captured by anti-human Fc, His-tagged monomer injected
Procedure: as §1, §2

Binder | Kd
B7 | 1.34 nM
B8 | 4.04 nM
B9 | 0.74 nM
B10 | 0.79 nM
B11 | 11.8 nM
B12 | 1.68 nM
B13 | 1.65 nM
B14 | 2.06 nM
B15 | 0.94 nM
B16 | 0.94 nM
B17 | 1.19 nM
B18 | 0.43 nM
B19 | 9.65 nM
B20 | 1.32 nM
B21 | 0.24 nM
B22 | 0.21 nM
B23 | 0.18 nM
B24 | 0.14 nM
B25 | 0.25 nM
B26 | 0.32 nM
B27 | 0.12 nM
B28 | 0.26 nM
B29 | 0.44 nM
B30 | 0.24 nM
